Data taken from patent US20200408769A1.
Values belong to the substance of their own block, whether it stands above or below them.

Assays:
Experiment in all cases: cell-based or functional assay
[1] = biological target: TM4SF1 (Transmembrane 4 L six family member 1) (human) (UniProt P30408)
[2] = biological target: EpCAM (Epithelial Cell Adhesion Molecule) (human) (UniProt P16422)
[3] = biological target: SDC1 (Syndecan 1) (human) (UniProt P18827)
[4] = biological target: TNFRSF12A (TNF receptor superfamily member 12A) (human) (UniProt Q9NP84)
UniProt Q9NP84, sequence (Q9NP84 28-129 limits assumed): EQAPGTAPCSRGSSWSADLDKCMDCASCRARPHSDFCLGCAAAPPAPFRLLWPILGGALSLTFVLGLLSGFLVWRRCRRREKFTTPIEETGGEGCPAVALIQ

UniProt P16422, sequence (P16422 24-314): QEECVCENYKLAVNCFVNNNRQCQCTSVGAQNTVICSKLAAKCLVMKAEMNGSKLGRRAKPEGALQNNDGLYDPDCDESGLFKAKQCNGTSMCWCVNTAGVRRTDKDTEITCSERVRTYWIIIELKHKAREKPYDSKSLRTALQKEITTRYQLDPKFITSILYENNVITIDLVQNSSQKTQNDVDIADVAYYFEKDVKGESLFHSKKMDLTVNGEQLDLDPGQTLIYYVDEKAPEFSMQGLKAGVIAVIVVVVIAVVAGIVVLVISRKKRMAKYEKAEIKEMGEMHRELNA
UniProt P30408, sequence (P30408 whole entry): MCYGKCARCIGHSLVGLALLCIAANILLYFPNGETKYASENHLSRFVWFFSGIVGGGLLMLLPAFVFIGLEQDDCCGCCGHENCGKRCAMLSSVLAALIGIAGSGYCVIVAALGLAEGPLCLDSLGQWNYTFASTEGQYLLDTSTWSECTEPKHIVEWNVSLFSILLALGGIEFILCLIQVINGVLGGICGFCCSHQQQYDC
UniProt P18827, sequence (P18827 23-310 L136Q limits assumed): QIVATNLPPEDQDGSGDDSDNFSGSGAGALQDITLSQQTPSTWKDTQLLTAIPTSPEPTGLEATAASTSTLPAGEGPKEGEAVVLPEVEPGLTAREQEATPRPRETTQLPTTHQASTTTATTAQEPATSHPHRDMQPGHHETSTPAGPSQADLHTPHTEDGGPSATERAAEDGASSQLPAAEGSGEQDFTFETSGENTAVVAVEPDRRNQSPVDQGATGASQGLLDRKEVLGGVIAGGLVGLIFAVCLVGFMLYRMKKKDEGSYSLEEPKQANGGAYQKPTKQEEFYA

- PANC1 cell collection ratio [%] [1]: 66%
- PC3 cell collection ratio [%] [1]: 76%
Substance: anti-TM4SF1 antibody (Human TM4SF1 Phycoerythrin MAb, R&D systems)

- PANC1 cell collection ratio [%] [2]: 49%
- PC3 cell collection ratio [%] [2]: 42%
Substance: anti-EpCAM antibody (PE-anti-human EpCAM Antibody, Miltenyi Biotec)

- PC3 cell collection ratio [%] [3]: 64%
Substance: anti-SDC1 antibody (PE-anti-human SDC1 Antibody, Biolegend)

- PANC1 cell collection ratio [%] [4]: 74.1%
- PC3 cell collection ratio [%] [4]: 48%
Substance: anti-TNFRSF12A antibody (PE anti-human CD266 (Fn14, TWEAK R) Antibody, Biolegend)
